Measured values taken from publication PMC8892312 (Proceedings of the National Academy of Sciences of the …, 2022).

B1: HBsu (histone-like protein HU of B. subtilis), recombinant (natural protein)
chain: MNKTELINAVAEASELSKKDATKAVDSVFDTILDALKNGDKIQLIGFGNFEVRERSARKGRNPQTGEEIEIPASKVPAFKPGKALKDAVAGK
B2: Gp46 from bacteriophage SPO1 (natural protein)
chain: MMTEDQKFKYLTKIEELEAGCFSDWTKEDITGDLKYLKKGIIEESIELIRAVNGLTYSEELHDFTQEIIEELDISPL

Legend:
SEC-MALS = target: the molecule itself; experiment: SEC-MALS
[1] = target: B1; experiment: ITC
[2] = target: B1; experiment: SPR
HBsu^R53N/R55N/R58N = target: T1, HBsu^R53N/R55N/R58N (Bacillus subtilis, UniProt P08821 1-92, R53N | R55N | R58N); experiment: ITC
T1 sequence: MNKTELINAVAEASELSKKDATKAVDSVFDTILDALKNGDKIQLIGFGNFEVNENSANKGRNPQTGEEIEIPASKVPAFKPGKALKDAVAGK

HBsu^I71A = target: T2, HBsu^I71A (Bacillus subtilis, UniProt P08821 1-92, I71A); experiment: ITC
T2 sequence: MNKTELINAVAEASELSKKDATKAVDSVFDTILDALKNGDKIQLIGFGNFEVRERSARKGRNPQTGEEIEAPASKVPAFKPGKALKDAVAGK

[3] = target: HU of Acinetobacter baumannii (Acinetobacter baumannii); experiment: ITC
[4] = target: B2; experiment: ITC
[5] = target: B1; experiment: ITC; remark: listed apart in the source
HBsu (HU of B. subtilis) = target: T3, HBsu (HU of B. subtilis) (Bacillus subtilis, UniProt P08821 1-92); experiment: ITC
T3 sequence: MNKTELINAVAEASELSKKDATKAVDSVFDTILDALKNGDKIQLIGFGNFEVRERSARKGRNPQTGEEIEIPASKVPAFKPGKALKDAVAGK

B1
binding result (SEC-MALS): binds

B2
Kd [1]: 0.277 ± 0.05 µM | Kd [2]: 5.87 ± 0.11 µM | binding result (HBsu^R53N/R55N/R58N): binds | Kd (HBsu^I71A): 6.41 ± 3.54 µM | Kd [3]: 0.3 µM

B3: HU of Plasmodium falciparum (natural protein)
chain: RRAFINVHKNNIINNKLSVNNPYNKNALYQSSSKIPMSQAITKKQIIEEVSMETKENKKTVEKIMNGIFDNIYKHLENNEKIYIHKFGMFYNIFRKKRCIKNLRTKEDIEIESSHMPHFKFSKVFKELIKQNVKVKKGKGVSTNDHDLDEDDMNMDNINESFKENVNEKLIY
Kd [4]: ~0.3 µM

B4: Gp46^D63N (natural protein)
chain: MMTEDQKFKYLTKIEELEAGCFSDWTKEDITGDLKYLKKGIIEESIELIRAVNGLTYSEELHNFTQEIIEELDISPL
binding result [5]: binds

B5: dsDNA (DNA1/DNA2) (dsDNA)
DNA 1: TGCTTATCAATTTGTTGCACC
DNA 2: GGTGCAACAAATTGATAAGCA
Kd (HBsu (HU of B. subtilis)): 0.359 ± 0.038 µM
